Target: SAMHD1 (T592A), constitutively active SAM domain and HD domain-containing protein 1 (UniProt Q9Y3Z3)
Test: cell-based or functional assay

Chain of SAMHD1 (T592A), constitutively active SAM domain and HD domain-containing protein 1 (Q9Y3Z3 whole entry T592A, the tested form may be a part): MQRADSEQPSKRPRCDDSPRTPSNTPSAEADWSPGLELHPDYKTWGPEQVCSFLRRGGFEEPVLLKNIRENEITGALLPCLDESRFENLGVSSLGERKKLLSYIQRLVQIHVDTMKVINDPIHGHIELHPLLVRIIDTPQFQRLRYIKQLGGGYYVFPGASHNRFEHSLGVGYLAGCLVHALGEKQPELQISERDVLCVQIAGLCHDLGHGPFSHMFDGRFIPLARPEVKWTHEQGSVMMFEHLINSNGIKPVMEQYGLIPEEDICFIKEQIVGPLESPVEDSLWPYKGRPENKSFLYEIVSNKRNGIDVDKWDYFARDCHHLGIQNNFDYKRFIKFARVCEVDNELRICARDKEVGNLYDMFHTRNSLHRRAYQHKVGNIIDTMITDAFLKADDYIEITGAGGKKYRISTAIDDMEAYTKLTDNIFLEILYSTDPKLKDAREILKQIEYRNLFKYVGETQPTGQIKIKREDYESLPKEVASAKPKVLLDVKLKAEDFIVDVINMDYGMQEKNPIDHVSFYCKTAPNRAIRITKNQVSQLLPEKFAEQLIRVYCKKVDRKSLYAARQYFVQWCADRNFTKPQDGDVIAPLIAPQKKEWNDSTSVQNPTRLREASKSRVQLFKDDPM

Substance	editing efficiency, RW2I, mutation 2-nt from the nick, SAMHD1 (T592A) coexpressed [%]	editing efficiency, mutation 65-nt from the nick, relative to no SAMHD1^p- [%]
VPX^RH2-1 (variant of VPX from HIV-2 clinical isolate RH2-1) (from UniProt P20881 1-112)	64	
VPX^ROD (Vpx from the ROD HIV-2 isolate) (from UniProt P06939 1-112)		78
